# T1: Banf1 WT (Homo sapiens, UniProt O75531 1-89)
# T1 sequence: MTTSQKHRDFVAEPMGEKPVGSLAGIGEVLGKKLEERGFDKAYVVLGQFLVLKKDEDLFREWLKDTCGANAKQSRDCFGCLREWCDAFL
# Target: T1, Banf1 WT
# Assay: EMSA; EC50; 10 mM KH2PO4, 100 mM NaCl, 0.01% IGEPAL, 5 nM Cy5 DNA, 30 min at 37 C; pH not stated; 8% gel in 1x TBE at 4 C
# Conditions: protein: recombinant; tags: N-terminal His6 (pET-28a NdeI-XhoI); chain copies: 2; label: 5' Cy5 on forward strand; blunt
binder,measurement,value
Cy5 40 bp dsDNA (dsDNA) DNA 1: AGGAGCGCCAGACCCACCAAGAGCCCTCTATCGGTTGGGA DNA 2: TCCCAACCGATAGAGGGCTCTTGGTGGGTCTGGCGCTCCT,apparent K (half saturation),15.1 ± 1.96 nM

# From paper PMC8606531, “The Impact of Rare Human Variants on Barrier-To-Auto-Integration Factor 1 (Banf1) Structure and Function”
